Assay results published in patent US20240327815A1.

Legend:
[1] = target: spike of live SARS-CoV-2 Delta variant (SARS-CoV-2) (UniProt P0DTC2); experiment: cell-based or functional assay
[2] = target: Alpha SARS-CoV-2 spike on pseudotyped lentivirus (SARS-CoV-2) (UniProt P0DTC2); experiment: cell-based or functional assay
[3] = target: spike of live SARS-CoV-2 Beta variant (SARS-CoV-2) (UniProt P0DTC2); experiment: cell-based or functional assay
[4] = target: Beta SARS-CoV-2 spike on pseudotyped lentivirus (SARS-CoV-2) (UniProt P0DTC2); experiment: cell-based or functional assay
[5] = target: Delta SARS-CoV-2 spike on pseudotyped lentivirus (SARS-CoV-2) (UniProt P0DTC2); experiment: cell-based or functional assay
[6] = target: Delta SARS-CoV-2 spike protein, plate-coated (MSD) (SARS-CoV-2) (UniProt P0DTC2); experiment: MSD competition vs labelled ACE2
[7] = target: Omicron SARS-CoV-2 spike protein, plate-coated (MSD) (SARS-CoV-2) (UniProt P0DTC2); experiment: MSD competition vs labelled ACE2
[8] = target: B.1.1.7 (Alpha) SARS-CoV-2 spike protein, plate-coated (MSD) (SARS-CoV-2) (UniProt P0DTC2); experiment: MSD competition vs labelled ACE2
[9] = target: P.1 (Gamma) SARS-CoV-2 spike protein, plate-coated (MSD) (SARS-CoV-2) (UniProt P0DTC2); experiment: MSD competition vs labelled ACE2
[10] = target: B.1.351 (Beta) SARS-CoV-2 spike protein, plate-coated (MSD) (SARS-CoV-2) (UniProt P0DTC2); experiment: MSD competition vs labelled ACE2

REGEN-COV was tested, and the Live virus neutralization (MN50, nM) [1] was 0.05 nM, the Live virus neutralization MN50 [1] was 0.05 nM and the Pseudovirus Neutralization (IC50, nM) [2] was 0.06 nM. For the same substance, the Live virus neutralization (MN50, nM) [3] was 0.08 nM, the Pseudovirus Neutralization (IC50, nM) [4] was 4.9 nM and the Pseudovirus Neutralization (IC50, nM) [5] was 0.05 nM. The Pseudovirus neutralization IC50 [5] was 0.05 nM, the IC50 [6] was 0.05 nM and the IC50 [7] was 13.1 nM. The IC50 [8] was 0.06 nM, the IC50 [9] was 0.4 nM and the IC50 [10] was 0.35 nM.
